Laboratory results: article PMC5578738 (2017)

T1: Side-VI (Drosophila, UniProt Q0KI85)
T1 chain: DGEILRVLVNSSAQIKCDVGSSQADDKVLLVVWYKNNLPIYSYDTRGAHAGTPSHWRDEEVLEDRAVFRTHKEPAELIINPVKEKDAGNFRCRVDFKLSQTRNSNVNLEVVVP


Biological target: T1, Side-VI
Experiment: SPR equilibrium, monomer ECD

Binder	Kd
Beat-Vb (protein) LRVTDINVPQIVDFRDNVTLSCSYDISGHTLNSVKWYKNGKEFFRYSPLTPPTYIPFAVEGVQLIDDGNECNESSCRVELNLLGVKSSGVYRCEVSGDAPHFQLTARDANMTVEAL	2300 nM
Beat-Va (protein) LFVTDISVPEIVDFRDNVTLSCSYDMRGHTLNSVKWYKDHEEFFRYSPLTSPIYMTFDVAGLQVLEGKYVCNESSCRLDLSLQGAKSTGLYKCEVSGDAPHFKLADKADNMTVAA	760 nM
